{"source": "patent US6096512", "binders": {"B1": {"name": "bovine colostrum UDP-GalNAc:polypeptide, N-acetylgalactosaminyltransferase (purified soluble enzyme) (enzyme)", "chain": "GLPAGDVLEPVQKPHEGPGEMGKPVVIPKEDQEKMKEMFKINQFNLMASEMIALNRSLPDVRLEGCKTKVYPDNLPTTSVVIVFHNEAWSTLLRTVHSVINRSPRHMLEEIVLVDDASERDFLKRPLESYVKKLKVPVHVIRMEQRSGLIRARLKGAAVSKGQVITFLDAHCECTVGWLEPLLARIKHDRKTVVCPIIDVISDDTFEYMAGSDMTYGGFNWKLNFRWYPVPQREMDRRKGDRTLPVRTPTMAGGLFSIDRDYFQEIGTYDAGMDIWGGENLEISFRIWQCGGTLEIVTCSHVGHVFRKATPYTFPGGTGQIINKNNRRLAEVWMDEFKNFFYIISPGVTKVDYGDISSRLGLRHKLQCRPFSWYLENIYPDSQIPRHYFSLGEIRNVETNQCLDNMARKENEKVGIFNCHGMGGNQVFSYTANKEIRTDDLCLDVSKLNGPVTMLKCHHLKGNQLWEYDPVKLTLQHVNSNQCLDKATDEDSQVPSIRDCSGSRSQQWLLRNVTLPEIF"}}, "key": {"[1]": {"biological_target": "bovine cytochrome C, reduced and carboxymethylated (bovine) (UniProt P62894)"}, "[2]": {"biological_target": "bovine cytochrome C, native (bovine) (UniProt P62894)"}, "[3]": {"biological_target": "T1, bovine rhodanese, reduced and carboxymethylated (bovine) (UniProt P00586)", "T1 sequence (chain, reduced and carboxymethylated)": "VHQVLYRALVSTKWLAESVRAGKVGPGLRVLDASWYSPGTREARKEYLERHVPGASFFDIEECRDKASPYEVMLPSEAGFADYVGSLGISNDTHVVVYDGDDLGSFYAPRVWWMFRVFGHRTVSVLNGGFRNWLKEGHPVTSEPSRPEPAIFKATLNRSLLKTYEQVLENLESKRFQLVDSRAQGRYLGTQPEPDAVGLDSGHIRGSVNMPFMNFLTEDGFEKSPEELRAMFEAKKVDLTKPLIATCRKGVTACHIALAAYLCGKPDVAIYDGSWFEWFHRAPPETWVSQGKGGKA"}, "[4]": {"biological_target": "T2, bovine rhodanese, native (bovine) (UniProt P00586)", "T2 sequence": "T1 sequence (chain, reduced and carboxymethylated)"}, "[5]": {"biological_target": "subtilisin, reduced and carboxymethylated"}, "[6]": {"biological_target": "T3, synthetic acceptor peptide Arg-Ser-Pro-Pro-Pro", "T3 sequence (peptide)": "RSPPP"}, "[7]": {"biological_target": "T4, synthetic acceptor peptide Arg-Thr-Pro-Pro-Pro", "T4 sequence (peptide)": "RTPPP"}, "[8]": {"biological_target": "synthetic acceptor peptide Pro-Pro-Ala-D-Ser-Thr-D-Ser-Ala-Pro-Gly"}}, "data": [{"binder": "B1", "values": [{"measurement": "Product formed nmol/min/mg (transfer of N-acetylgalactosamine to protein acceptors)", "setting": "subtilisin, native", "value": "< 0.1", "unit": "nmol/min/mg"}, {"measurement": "Product formed nmol/min/mg (transfer of N-acetylgalactosamine to protein acceptors)", "setting": "[1]", "value": "< 0.1", "unit": "nmol/min/mg"}, {"measurement": "Product formed nmol/min/mg (transfer of N-acetylgalactosamine to protein acceptors)", "setting": "[2]", "value": "< 0.1", "unit": "nmol/min/mg"}, {"measurement": "Product formed nmol/min/mg (transfer of N-acetylgalactosamine to protein acceptors)", "setting": "myelin basic protein", "value": 22.2, "unit": "nmol/min/mg"}, {"measurement": "Product formed nmol/min/mg (transfer of N-acetylgalactosamine to protein acceptors)", "setting": "[3]", "value": 3.3, "unit": "nmol/min/mg"}, {"measurement": "Product formed nmol/min/mg (transfer of N-acetylgalactosamine to protein acceptors)", "setting": "[4]", "value": "< 0.1", "unit": "nmol/min/mg"}, {"measurement": "Product formed nmol/min/mg (transfer of N-acetylgalactosamine to protein acceptors)", "setting": "[5]", "value": 0.6, "unit": "nmol/min/mg"}, {"measurement": "Vmax /Km M^-1 s^-1", "setting": "[6]", "value": 0.4, "unit": "M⁻¹ s⁻¹"}, {"measurement": "Km", "setting": "[7]", "value": 3.3, "unit": "mM"}, {"measurement": "Vmax /Km M^-1 s^-1", "setting": "[7]", "value": 183, "unit": "M⁻¹ s⁻¹"}, {"measurement": "Vmax /Km M^-1 s^-1", "setting": "[8]", "value": 1.2, "unit": "M⁻¹ s⁻¹"}]}]}
